From US20230365662A1
Where “and” joins values, the source holds several entries; their conditions need not be identical. Equal entries are not always repeated.

B1: parental mouse (KB001) Fab FASEBA, VL variant A56T (Fab, V domains shown)
VH: EVQLKQSGPGLVAPSQSLSITCTVSGFSLSIYSVHWVRQPPGKGLEWLGMIWGGGSSDYNSALKSRLSISKDNSKSQVFLKMNSLQTDDTAMYYCARNGNFYAMDYWGQGTSVTVSS
VL: QIVLTQSPAIMSASLGERVTMTCTASSSVSSSFLHWYQQKPGSSPQLWIYSTSNLTSGVPARFSGSGSGTSYSLTISSMEAEDAATYYCHQYHHSPYIYTFGGGTKLEIK
B2: parental mouse (KB001) Fab FASEBA, VL variant A56S (Fab, V domains shown)
VH: EVQLKQSGPGLVAPSQSLSITCTVSGFSLSIYSVHWVRQPPGKGLEWLGMIWGGGSSDYNSALKSRLSISKDNSKSQVFLKMNSLQTDDTAMYYCARNGNFYAMDYWGQGTSVTVSS
VL: QIVLTQSPAIMSASLGERVTMTCTASSSVSSSFLHWYQQKPGSSPQLWIYSTSNLSSGVPARFSGSGSGTSYSLTISSMEAEDAATYYCHQYHHSPYIYTFGGGTKLEIK
B3: parental mouse (KB001) Fab FASEBA, VL variant A56R (Fab, V domains shown)
VH: EVQLKQSGPGLVAPSQSLSITCTVSGFSLSIYSVHWVRQPPGKGLEWLGMIWGGGSSDYNSALKSRLSISKDNSKSQVFLKMNSLQTDDTAMYYCARNGNFYAMDYWGQGTSVTVSS
VL: QIVLTQSPAIMSASLGERVTMTCTASSSVSSSFLHWYQQKPGSSPQLWIYSTSNLRSGVPARFSGSGSGTSYSLTISSMEAEDAATYYCHQYHHSPYIYTFGGGTKLEIK
B4: parental mouse (KB001) Fab FASEBA, VL variant S57K (Fab, V domains shown)
VH: EVQLKQSGPGLVAPSQSLSITCTVSGFSLSIYSVHWVRQPPGKGLEWLGMIWGGGSSDYNSALKSRLSISKDNSKSQVFLKMNSLQTDDTAMYYCARNGNFYAMDYWGQGTSVTVSS
VL: QIVLTQSPAIMSASLGERVTMTCTASSSVSSSFLHWYQQKPGSSPQLWIYSTSNLAKGVPARFSGSGSGTSYSLTISSMEAEDAATYYCHQYHHSPYIYTFGGGTKLEIK
B5: parental mouse (KB001) Fab FASEBA, VL variant A56Q (Fab, V domains shown)
VH: EVQLKQSGPGLVAPSQSLSITCTVSGFSLSIYSVHWVRQPPGKGLEWLGMIWGGGSSDYNSALKSRLSISKDNSKSQVFLKMNSLQTDDTAMYYCARNGNFYAMDYWGQGTSVTVSS
VL: QIVLTQSPAIMSASLGERVTMTCTASSSVSSSFLHWYQQKPGSSPQLWIYSTSNLQSGVPARFSGSGSGTSYSLTISSMEAEDAATYYCHQYHHSPYIYTFGGGTKLEIK
B6: parental mouse (KB001) Fab FASEBA, VL variant S57F (Fab, V domains shown)
VH: EVQLKQSGPGLVAPSQSLSITCTVSGFSLSIYSVHWVRQPPGKGLEWLGMIWGGGSSDYNSALKSRLSISKDNSKSQVFLKMNSLQTDDTAMYYCARNGNFYAMDYWGQGTSVTVSS
VL: QIVLTQSPAIMSASLGERVTMTCTASSSVSSSFLHWYQQKPGSSPQLWIYSTSNLAFGVPARFSGSGSGTSYSLTISSMEAEDAATYYCHQYHHSPYIYTFGGGTKLEIK
B7: parental mouse (KB001) Fab FASEBA, VL variant S57L (Fab, V domains shown)
VH: EVQLKQSGPGLVAPSQSLSITCTVSGFSLSIYSVHWVRQPPGKGLEWLGMIWGGGSSDYNSALKSRLSISKDNSKSQVFLKMNSLQTDDTAMYYCARNGNFYAMDYWGQGTSVTVSS
VL: QIVLTQSPAIMSASLGERVTMTCTASSSVSSSFLHWYQQKPGSSPQLWIYSTSNLALGVPARFSGSGSGTSYSLTISSMEAEDAATYYCHQYHHSPYIYTFGGGTKLEIK
B8: parental mouse (KB001) Fab FASEBA, VL variant S57N (Fab, V domains shown)
VH: EVQLKQSGPGLVAPSQSLSITCTVSGFSLSIYSVHWVRQPPGKGLEWLGMIWGGGSSDYNSALKSRLSISKDNSKSQVFLKMNSLQTDDTAMYYCARNGNFYAMDYWGQGTSVTVSS
VL: QIVLTQSPAIMSASLGERVTMTCTASSSVSSSFLHWYQQKPGSSPQLWIYSTSNLANGVPARFSGSGSGTSYSLTISSMEAEDAATYYCHQYHHSPYIYTFGGGTKLEIK
B9: parental mouse (KB001) Fab FASEBA, VL variant A56P (Fab, V domains shown)
VH: EVQLKQSGPGLVAPSQSLSITCTVSGFSLSIYSVHWVRQPPGKGLEWLGMIWGGGSSDYNSALKSRLSISKDNSKSQVFLKMNSLQTDDTAMYYCARNGNFYAMDYWGQGTSVTVSS
VL: QIVLTQSPAIMSASLGERVTMTCTASSSVSSSFLHWYQQKPGSSPQLWIYSTSNLPSGVPARFSGSGSGTSYSLTISSMEAEDAATYYCHQYHHSPYIYTFGGGTKLEIK
B10: parental mouse (KB001) Fab FASEBA, VL variant A56V (Fab, V domains shown)
VH: EVQLKQSGPGLVAPSQSLSITCTVSGFSLSIYSVHWVRQPPGKGLEWLGMIWGGGSSDYNSALKSRLSISKDNSKSQVFLKMNSLQTDDTAMYYCARNGNFYAMDYWGQGTSVTVSS
VL: QIVLTQSPAIMSASLGERVTMTCTASSSVSSSFLHWYQQKPGSSPQLWIYSTSNLVSGVPARFSGSGSGTSYSLTISSMEAEDAATYYCHQYHHSPYIYTFGGGTKLEIK
B11: parental mouse (KB001) Fab FASEBA, VL variant S57A (Fab, V domains shown)
VH: EVQLKQSGPGLVAPSQSLSITCTVSGFSLSIYSVHWVRQPPGKGLEWLGMIWGGGSSDYNSALKSRLSISKDNSKSQVFLKMNSLQTDDTAMYYCARNGNFYAMDYWGQGTSVTVSS
VL: QIVLTQSPAIMSASLGERVTMTCTASSSVSSSFLHWYQQKPGSSPQLWIYSTSNLAAGVPARFSGSGSGTSYSLTISSMEAEDAATYYCHQYHHSPYIYTFGGGTKLEIK
B12: parental mouse (KB001) Fab FASEBA, VL variant A56M (Fab, V domains shown)
VH: EVQLKQSGPGLVAPSQSLSITCTVSGFSLSIYSVHWVRQPPGKGLEWLGMIWGGGSSDYNSALKSRLSISKDNSKSQVFLKMNSLQTDDTAMYYCARNGNFYAMDYWGQGTSVTVSS
VL: QIVLTQSPAIMSASLGERVTMTCTASSSVSSSFLHWYQQKPGSSPQLWIYSTSNLMSGVPARFSGSGSGTSYSLTISSMEAEDAATYYCHQYHHSPYIYTFGGGTKLEIK
B13: parental mouse (KB001) Fab FASEBA, VL variant S57I (Fab, V domains shown)
VH: EVQLKQSGPGLVAPSQSLSITCTVSGFSLSIYSVHWVRQPPGKGLEWLGMIWGGGSSDYNSALKSRLSISKDNSKSQVFLKMNSLQTDDTAMYYCARNGNFYAMDYWGQGTSVTVSS
VL: QIVLTQSPAIMSASLGERVTMTCTASSSVSSSFLHWYQQKPGSSPQLWIYSTSNLAIGVPARFSGSGSGTSYSLTISSMEAEDAATYYCHQYHHSPYIYTFGGGTKLEIK
B14: parental mouse (KB001) Fab FASEBA, VL variant A56N (Fab, V domains shown)
VH: EVQLKQSGPGLVAPSQSLSITCTVSGFSLSIYSVHWVRQPPGKGLEWLGMIWGGGSSDYNSALKSRLSISKDNSKSQVFLKMNSLQTDDTAMYYCARNGNFYAMDYWGQGTSVTVSS
VL: QIVLTQSPAIMSASLGERVTMTCTASSSVSSSFLHWYQQKPGSSPQLWIYSTSNLNSGVPARFSGSGSGTSYSLTISSMEAEDAATYYCHQYHHSPYIYTFGGGTKLEIK
B15: parental mouse (KB001) Fab FASEBA, VL variant S57Q (Fab, V domains shown)
VH: EVQLKQSGPGLVAPSQSLSITCTVSGFSLSIYSVHWVRQPPGKGLEWLGMIWGGGSSDYNSALKSRLSISKDNSKSQVFLKMNSLQTDDTAMYYCARNGNFYAMDYWGQGTSVTVSS
VL: QIVLTQSPAIMSASLGERVTMTCTASSSVSSSFLHWYQQKPGSSPQLWIYSTSNLAQGVPARFSGSGSGTSYSLTISSMEAEDAATYYCHQYHHSPYIYTFGGGTKLEIK

Biological target: HRgpA-6H (Porphyromonas gingivalis) (UniProt P28784)
Experiment: ELISA, Fab FASEBA supernatant on coated HRgpA-6H

Sequence of UniProt P28784 (P28784 228-991 limits assumed): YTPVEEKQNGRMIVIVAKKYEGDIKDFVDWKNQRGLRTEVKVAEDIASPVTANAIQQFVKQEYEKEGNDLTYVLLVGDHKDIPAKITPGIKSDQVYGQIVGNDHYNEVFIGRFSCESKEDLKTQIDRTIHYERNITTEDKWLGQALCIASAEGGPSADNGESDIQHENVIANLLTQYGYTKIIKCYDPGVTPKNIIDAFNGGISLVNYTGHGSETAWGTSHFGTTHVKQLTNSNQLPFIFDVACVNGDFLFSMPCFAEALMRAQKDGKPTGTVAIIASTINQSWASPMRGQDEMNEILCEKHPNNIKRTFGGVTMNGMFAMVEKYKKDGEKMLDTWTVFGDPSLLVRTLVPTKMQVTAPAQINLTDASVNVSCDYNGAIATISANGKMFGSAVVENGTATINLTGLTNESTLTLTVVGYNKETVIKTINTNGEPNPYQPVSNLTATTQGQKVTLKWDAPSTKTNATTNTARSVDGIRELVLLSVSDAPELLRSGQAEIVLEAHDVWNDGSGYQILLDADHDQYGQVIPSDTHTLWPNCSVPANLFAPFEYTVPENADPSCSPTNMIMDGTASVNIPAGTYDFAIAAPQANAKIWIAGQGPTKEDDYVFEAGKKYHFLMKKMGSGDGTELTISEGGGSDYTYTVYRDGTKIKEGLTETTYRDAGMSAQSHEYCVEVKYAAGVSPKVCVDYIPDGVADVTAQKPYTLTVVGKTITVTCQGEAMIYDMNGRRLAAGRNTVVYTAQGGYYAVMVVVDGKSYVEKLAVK

Row | Binder | OD450nm | Ratio OD(Variant)/OD(WT)
1 | B1 | 0.731 OD450nm | 0.896 ratio to WT
2 | B2 | 0.772 OD450nm and 0.751 OD450nm and 0.774 OD450nm | 0.947 ratio to WT and 0.921 ratio to WT and 0.949 ratio to WT
3 | B3 | 0.728 OD450nm and 0.734 OD450nm and 0.751 OD450nm | 0.893 ratio to WT and 0.9 ratio to WT and 0.921 ratio to WT
4 | B4 | 0.712 OD450nm | 0.873 ratio to WT
5 | B5 | 0.705 OD450nm | 0.865 ratio to WT
6 | B6 | 0.785 OD450nm and 0.787 OD450nm and 0.797 OD450nm | 0.963 ratio to WT and 0.965 ratio to WT and 0.977 ratio to WT
7 | B7 | 0.781 OD450nm | 0.958 ratio to WT
8 | B8 | 0.813 OD450nm | 0.997 ratio to WT
9 | B9 | 0.748 OD450nm | 0.917 ratio to WT
10 | B10 | 0.794 OD450nm and 0.795 OD450nm | 0.974 ratio to WT and 0.975 ratio to WT
11 | B11 | 0.806 OD450nm | 0.988 ratio to WT
12 | B12 | 0.802 OD450nm and 0.701 OD450nm | 0.983 ratio to WT and 0.86 ratio to WT
13 | B13 | 0.791 OD450nm | 0.97 ratio to WT
14 | B14 | 0.712 OD450nm and 0.775 OD450nm | 0.873 ratio to WT and 0.95 ratio to WT
15 | B15 | 0.658 OD450nm | 0.807 ratio to WT
